# According to the RNAGym collection of RNA variant scans (doi:10.1073/pnas.2313332121):
# B1: TPR t1 (parent)
# chain: GACCAAUCUGCCCUCAGAGCUCGAGAACAUCUUCGGAUGCAGAGGAGGCAGGCUUCGGUGGCGCGAUAGCGCCAACGUCCUCAACCUCCAAUGCAUCCCACCACAUGAUGAUGCCUGAAGAGCCUUGGUUUUUUG
# Variants of: B1
# Experiment: polymerase ribozyme fitness, log enrichment relative to wild type (log ratio); higher = more active; in vitro selection for triplet polymerase activity
# Outline: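 Frozen incubation at −7 °C formed the core of a single, triplicate in vitro selection round applied to PCR-built, transcribed mutant libraries of each subunit of a heterodimeric triplet polymerase ribozyme. Extended constructs were gel-excised, captured with streptavidin beads and amplified by RT-PCR, and input and output libraries were Illumina-sequenced with a filter of ≥10 input reads and ≥1 read per output. Fitness is the logarithm of genotype enrichment relative to wild-type enrichment, with inverse-variance-weighted replicate averaging, and the logarithm is base 2.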
row,Variant,polymerase ribozyme fitness (log ratio)
1,C80U G93C,-1.44
2,C79A C89A A118G,-3.86
3,C79U C94A C102A G120C,-2.46
4,C82G A108G A111G A121C,-5.85
5,C82U U96A U109C,-5.99
6,C79G U92C,-3.03
7,C82G C115A C123A,-1.32
8,C79U G113A,-1.38
9,U81G U125A U131G,-4.64
10,C79U C82A U87A G110C,-4.6
11,U81C A121G,0.253
12,U81G G110A,-6.43
13,C80A G93A C124A G128A,-5.36
14,C79A U81C G120U G135C,-2.91
15,C80U U131A,-0.732
16,U81A U129C,-1.37
17,C79A G127U,-2.57
18,A83C A111U,-3.57
19,U81G U112G,-5.41
20,C82A G117U,-0.792
21,C82G U116G,-2.05

row,Variant,polymerase ribozyme fitness (log ratio)
1,C79A U112A G128U,-3.42
2,C79U A118C,-2.46
3,C79G C82G U92A A121G,-5.59
4,C79G C124G U125A,-4.24
5,C79U A111U,-3.01
6,C82G C86A A121U,1.39
7,C79U G110U G120C G122A,-4.4
8,C82U C86A C97A,-4.95
9,A84C C123U U133G,0.656
10,C79U G93U,-1.77
11,C82U A100C C123U,-0.0044
12,C79U C104A,-2.22
13,C82A U116C,-0.539
14,U81C C114U,-1.96
15,C82A G122A,-0.963
16,C79U A95C A118U,-0.263
17,C79U C88U,-0.115
18,C80A C86G,-5.2
19,A84C C98A C114G U116C,-4.74
20,C79U G113A C123U U129C,-3.48
21,U81G G110U G128A,-6.9

row,Variant,polymerase ribozyme fitness (log ratio)
1,U81A G110A,-2.37
2,C82U G113U,-2.32
3,C82U G113C,-2.19
4,U81A C94U G117A C123G,-5.66
5,C79A G93U,-2.82
6,A84C U130C,-0.28
7,U81G C104U G122A,-4.33
8,C80A U130C,-2.51
9,C79A U81C C89U G93U G120C C124U,-3.62
10,A83U G117U,-1.02
11,C82G C97A C124A U125G,-5.83
12,A83G G120U C124A G135A,0.857
13,C80G A119U,-2.85
14,A83G C97U U109A,-5.36
15,C79U C89A G117U C123G,-1.41
16,A84C U87A U96A,-1.65
17,A83G U112C U131A,1.02
18,C80U U109C,-3.85
19,A83G C97A,-5.59
20,C80G A121U,-3.78
21,C82A A118G A121G,1.48

row,Variant,polymerase ribozyme fitness (log ratio)
1,C79U C98A,-4.92
2,A84G G93U C101A,-3.07
3,C82U G127A,-1.24
4,C82U A108U A121G,-4.59
5,C80U U112G G117C,-5.23
6,C82U C94U C114A,-2.17
7,C82G C101A C115A,-2.63
8,C82U U87A,-0.441
9,A83C C86G,-1.46
10,A83U G120U U129C,-1.36
11,A83G U109C,-5.77
12,C82G C86U,-0.172
13,C79U G120U,0.0692
14,A83C C115G,-1.92
15,A83C G135U,-0.881
16,C80U C101U A121C,1.19
17,U81A C86G,-1.48
18,A83C U106A,0.162
19,A83C U106C,-0.823
20,C82A U112G,0.0724
21,A83C C114G,-2.24
